Results on 1 molecule are retold here after patent US8138323 (YEDA RESEARCH AND DEVELOPMENT, dated 2012).

For the assay, the target named is TNF (UniProt P01375 77-233). The experiment in a line: cell-based or functional assay.
Sequence of TNF (P01375 77-233 limits assumed): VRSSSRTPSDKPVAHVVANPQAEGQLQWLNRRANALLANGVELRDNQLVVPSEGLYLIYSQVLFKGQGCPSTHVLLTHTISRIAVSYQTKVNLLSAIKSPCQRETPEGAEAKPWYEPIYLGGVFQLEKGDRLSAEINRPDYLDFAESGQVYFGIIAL

B1: Tumor Necrosis Factor (TNF) Binding Protein II (receptor, human, UniProt P20333 25-213, looked up)
chain: AQVAFTPYAPEPGSTCRLREYYDQTAQMCCSKCSPGQHAKVFCTKTSDTVCDSCEDSTYTQLWNWVPECLSCGSRCSSDQVETQACTREQNRICTCRPGWYCALSKQEGCRLCAPLRKCRPGFGVARPGTETSDVVCKPCAPGTFSNTTSSTDICRPHQICNVVAIPGNASMDAVCTSTSPTRSMAPGA
As for B1, the “detectable cytotoxicity of rTNF in the presence of TBP-II against rTNF alone, days 2 to 9” value turned out to be 10 fold.
